B1: wild type AcrB (Escherichia coli multidrug transporter AcrB) [E. coli] / itself (parent)
chain: MPNFFIDRPIFAWVIAIIIMLAGGLAILKLPVAQYPTIAPPAVTISASYPGADAKTVQDTVTQVIEQNMNGIDNLMYMSSNSDSTGTVQITLTFESGTDADIAQVQVQNKLQLAMPLLPQEVQQQGVSVEKSSSSFLMVVGVINTDGTMTQEDISDYVAANMKDAISRTSGVGDVQLFGSQYAMRIWMNPNELNKFQLTPVDVITAIKAQNAQVAAGQLGGTPPVKGQQLNASIIAQTRLTSTEEFGKILLKVNQDGSRVLLRDVAKIELGGENYDIIAEFNGQPASGLGIKLATGANALDTAAAIRAELAKMEPFFPSGLKIVYPYDTTPFVKISIHEVVKTLVEAIILVFLVMYLFLQNFRATLIPTIAVPVVLLGTFAVLAAFGFSINTLTMFGMVLAIGLLVDDAIVVVENVERVMAEEGLPPKEATRKSMGQIQGALVGIAMVLSAVFVPMAFFGGSTGAIYRQFSITIVSAMALSVLVALILTPALCATMLKPIAKGDHGEGKKGFFGWFNRMFEKSTHHYTDSVGGILRSTGRYLVLYLIIVVGMAYLFVRLPSSFLPDEDQGVFMTMVQLPAGATQERTQKVLNEVTHYYLTKEKNNVESVFAVNGFGFAGRGQNTGIAFVSLKDWADRPGEENKVEAITMRATRAFSQIKDAMVFAFNLPAIVELGTATGFDFELIDQAGLGHEKLTQARNQLLAEAAKHPDMLTSVRPNGLEDTPQFKIDIDQEKAQALGVSINDINTTLGAAWGGSYVNDFIDRGRVKKVYVMSEAKYRMLPDDIGDWYVRAADGQMVPFSAFSSSRWEYGSPRLERYNGLPSMEILGQAAPGKSTGEAMELMEQLASKLPTGVGYDWTGMSYQERLSGNQAPSLYAISLIVVFLCLAALYESWSIPFSVMLVVPLGVIGALLAATFRGLTNDVYFQVGLLTTIGLSAKNAILIVEFAKDLMDKEGKGLIEATLDAVRMRLRPILMTSLAFILGVMPLVISTGAGSGAQNAVGTGVMGGMVTATVLAIFFVPVFFVVVRRRFSRKNEDIEHSHTVDHH

In the test the parent is B1. As to the kind of experiment: BN-PAGE. Particulars: with itself; read off a plot.
Turning to chain 1 G257V P223G, the screen value stood at 0.15.
The figure for chain 1 Q737L P223G is 0.075.
The figure for chain 1 E810K P223G is 0.11; for chain 1 A209V P223G it is 0.4; for chain 1 D256N P223G it is 0.41.
Then chain 1 M662I P223G, with 0.19; and chain 1 P800S P223G, with 0.11.
With chain 1 T199M P223G, the screen value stood at 0.7.
Then chain 1 P223G, with 0.26.
In the case of chain 1 D788K P223G, the screen value is 0.15.

The values are drawn from publication PMC4303003.
